In patent US20250361268A1, “NOVEL ANTI-INFLAMMATORY PEPTIDE AND USE THEREOF” (NOVACELL TECHNOLOGY INC., priority 2022, published 2025):

T1: FPR1 (UniProt P21462 1-350, limits assumed)
T1 sequence (looked up): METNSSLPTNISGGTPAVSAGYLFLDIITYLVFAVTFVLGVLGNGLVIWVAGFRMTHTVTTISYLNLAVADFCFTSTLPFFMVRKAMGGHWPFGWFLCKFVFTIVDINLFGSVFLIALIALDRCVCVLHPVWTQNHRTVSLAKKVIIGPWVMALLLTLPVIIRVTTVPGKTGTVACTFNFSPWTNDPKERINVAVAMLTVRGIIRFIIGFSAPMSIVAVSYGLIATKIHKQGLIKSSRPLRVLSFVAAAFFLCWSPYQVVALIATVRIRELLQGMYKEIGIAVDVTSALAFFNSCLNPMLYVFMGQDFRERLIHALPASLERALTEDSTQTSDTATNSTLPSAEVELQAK

T2: formyl peptide receptor 2 (FPR2) (UniProt P25090 1-351, limits assumed)
T2 sequence (looked up): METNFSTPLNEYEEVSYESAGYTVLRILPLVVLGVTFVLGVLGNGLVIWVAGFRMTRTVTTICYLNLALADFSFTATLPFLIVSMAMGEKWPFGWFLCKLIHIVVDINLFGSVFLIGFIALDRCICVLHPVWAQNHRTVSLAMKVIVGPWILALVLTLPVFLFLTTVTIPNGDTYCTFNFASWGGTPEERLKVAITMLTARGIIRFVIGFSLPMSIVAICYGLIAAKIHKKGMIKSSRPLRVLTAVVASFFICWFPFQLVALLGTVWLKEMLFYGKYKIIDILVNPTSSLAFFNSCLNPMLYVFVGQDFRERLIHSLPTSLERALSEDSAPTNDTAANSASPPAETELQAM

B1: peptide of SEQ ID NO 86 (peptide)
peptide: MRYWYM
HELM: PEPTIDE1{[ac].M.R.Y.W.Y.[dM].[am]}$$$$V2.0
SMILES: CSCC[C@H](NC(C)=O)C(=O)N[C@@H](CCCNC(=N)N)C(=O)N[C@@H](Cc1ccc(O)cc1)C(=O)N[C@@H](Cc1c[nH]c2ccccc12)C(=O)N[C@@H](Cc1ccc(O)cc1)C(=O)N[C@H](CCSC)C(N)=O
B2: peptide of SEQ ID NO 92 (peptide)
peptide: HMRYWYM
HELM: PEPTIDE1{[ac].H.M.R.Y.W.Y.[dM].[am]}$$$$V2.0
SMILES: CSCC[C@H](NC(=O)[C@H](Cc1c[nH]cn1)NC(C)=O)C(=O)N[C@@H](CCCNC(=N)N)C(=O)N[C@@H](Cc1ccc(O)cc1)C(=O)N[C@@H](Cc1c[nH]c2ccccc12)C(=O)N[C@@H](Cc1ccc(O)cc1)C(=O)N[C@H](CCSC)C(N)=O
B3: peptide of SEQ ID NO 125 (peptide)
peptide: RMRYYYM
HELM: PEPTIDE1{[ac].R.M.R.Y.Y.Y.[dM].[am]}$$$$V2.0
SMILES: CSCC[C@H](NC(=O)[C@H](CCCNC(=N)N)NC(C)=O)C(=O)N[C@@H](CCCNC(=N)N)C(=O)N[C@@H](Cc1ccc(O)cc1)C(=O)N[C@@H](Cc1ccc(O)cc1)C(=O)N[C@@H](Cc1ccc(O)cc1)C(=O)N[C@H](CCSC)C(N)=O
B4: peptide of SEQ ID NO 127 (peptide)
peptide: HMKYYYM
HELM: PEPTIDE1{[CCCC(=O)[*:2]].H.M.K.Y.Y.Y.[dM].[am]}$$$$V2.0
SMILES: CCCC(=O)N[C@@H](Cc1c[nH]cn1)C(=O)N[C@@H](CCSC)C(=O)N[C@@H](CCCCN)C(=O)N[C@@H](Cc1ccc(O)cc1)C(=O)N[C@@H](Cc1ccc(O)cc1)C(=O)N[C@@H](Cc1ccc(O)cc1)C(=O)N[C@H](CCSC)C(N)=O
B5: peptide of SEQ ID NO 89 (peptide)
peptide: MKYWYM
HELM: PEPTIDE1{M.K.Y.W.Y.[dM].[am]}$$$$V2.0; N-terminus assumed
SMILES: CSCC[C@H](N)C(=O)N[C@@H](CCCCN)C(=O)N[C@@H](Cc1ccc(O)cc1)C(=O)N[C@@H](Cc1c[nH]c2ccccc12)C(=O)N[C@@H](Cc1ccc(O)cc1)C(=O)N[C@H](CCSC)C(N)=O
B6: peptide of SEQ ID NO 80 (peptide)
peptide: KWKYWYM
HELM: PEPTIDE1{[ac].K.W.K.Y.W.Y.[dM].[am]}$$$$V2.0
SMILES: CSCC[C@@H](NC(=O)[C@H](Cc1ccc(O)cc1)NC(=O)[C@H](Cc1c[nH]c2ccccc12)NC(=O)[C@H](Cc1ccc(O)cc1)NC(=O)[C@H](CCCCN)NC(=O)[C@H](Cc1c[nH]c2ccccc12)NC(=O)[C@H](CCCCN)NC(C)=O)C(N)=O
B7: peptide of SEQ ID NO 134 (peptide)
peptide: IKYKVM
HELM: PEPTIDE1{I.K.Y.K.V.[dM].[am]}$$$$V2.0; N-terminus assumed
SMILES: CC[C@H](C)[C@H](N)C(=O)N[C@@H](CCCCN)C(=O)N[C@@H](Cc1ccc(O)cc1)C(=O)N[C@@H](CCCCN)C(=O)N[C@H](C(=O)N[C@H](CCSC)C(N)=O)C(C)C
B8: peptide of SEQ ID NO 81 (peptide)
peptide: RMRYWYM
HELM: PEPTIDE1{R.M.R.Y.W.Y.[dM].[am]}$$$$V2.0; N-terminus assumed
SMILES: CSCC[C@H](NC(=O)[C@@H](N)CCCNC(=N)N)C(=O)N[C@@H](CCCNC(=N)N)C(=O)N[C@@H](Cc1ccc(O)cc1)C(=O)N[C@@H](Cc1c[nH]c2ccccc12)C(=O)N[C@@H](Cc1ccc(O)cc1)C(=O)N[C@H](CCSC)C(N)=O
B9: peptide of SEQ ID NO 82 (peptide)
peptide: RMRYWYM
HELM: PEPTIDE1{[ac].R.M.R.Y.W.Y.[dM].[am]}$$$$V2.0
SMILES: CSCC[C@H](NC(=O)[C@H](CCCNC(=N)N)NC(C)=O)C(=O)N[C@@H](CCCNC(=N)N)C(=O)N[C@@H](Cc1ccc(O)cc1)C(=O)N[C@@H](Cc1c[nH]c2ccccc12)C(=O)N[C@@H](Cc1ccc(O)cc1)C(=O)N[C@H](CCSC)C(N)=O
B10: peptide of SEQ ID NO 135 (peptide)
peptide: IKYKVM
HELM: PEPTIDE1{[ac].I.K.Y.K.V.[dM].[am]}$$$$V2.0
SMILES: CC[C@H](C)[C@H](NC(C)=O)C(=O)N[C@@H](CCCCN)C(=O)N[C@@H](Cc1ccc(O)cc1)C(=O)N[C@@H](CCCCN)C(=O)N[C@H](C(=O)N[C@H](CCSC)C(N)=O)C(C)C
B11: peptide of SEQ ID NO 13 (peptide)
peptide: MRYKVM
HELM: PEPTIDE1{M.R.Y.K.V.[dM].[am]}$$$$V2.0; N-terminus assumed
SMILES: CSCC[C@H](N)C(=O)N[C@@H](CCCNC(=N)N)C(=O)N[C@@H](Cc1ccc(O)cc1)C(=O)N[C@@H](CCCCN)C(=O)N[C@H](C(=O)N[C@H](CCSC)C(N)=O)C(C)C
B12: peptide of SEQ ID NO 78 (peptide)
peptide: RWRYWYM
HELM: PEPTIDE1{[ac].R.W.R.Y.W.Y.[dM].[am]}$$$$V2.0
SMILES: CSCC[C@@H](NC(=O)[C@H](Cc1ccc(O)cc1)NC(=O)[C@H](Cc1c[nH]c2ccccc12)NC(=O)[C@H](Cc1ccc(O)cc1)NC(=O)[C@H](CCCNC(=N)N)NC(=O)[C@H](Cc1c[nH]c2ccccc12)NC(=O)[C@H](CCCNC(=N)N)NC(C)=O)C(N)=O
B13: peptide of SEQ ID NO 11 (peptide)
peptide: KMKYKVM
HELM: PEPTIDE1{[CCCC(=O)[*:2]].K.M.K.Y.K.V.[dM].[am]}$$$$V2.0
SMILES: CCCC(=O)N[C@@H](CCCCN)C(=O)N[C@@H](CCSC)C(=O)N[C@@H](CCCCN)C(=O)N[C@@H](Cc1ccc(O)cc1)C(=O)N[C@@H](CCCCN)C(=O)N[C@H](C(=O)N[C@H](CCSC)C(N)=O)C(C)C
B14: peptide of SEQ ID NO 83 (peptide)
peptide: RMRYWYM
HELM: PEPTIDE1{[CCCC(=O)[*:2]].R.M.R.Y.W.Y.[dM].[am]}$$$$V2.0
SMILES: CCCC(=O)N[C@@H](CCCNC(=N)N)C(=O)N[C@@H](CCSC)C(=O)N[C@@H](CCCNC(=N)N)C(=O)N[C@@H](Cc1ccc(O)cc1)C(=O)N[C@@H](Cc1c[nH]c2ccccc12)C(=O)N[C@@H](Cc1ccc(O)cc1)C(=O)N[C@H](CCSC)C(N)=O
B15: peptide of SEQ ID NO 123 (peptide)
peptide: RWRYYYM
HELM: PEPTIDE1{R.W.R.Y.Y.Y.[dM].[am]}$$$$V2.0; N-terminus assumed
SMILES: CSCC[C@@H](NC(=O)[C@H](Cc1ccc(O)cc1)NC(=O)[C@H](Cc1ccc(O)cc1)NC(=O)[C@H](Cc1ccc(O)cc1)NC(=O)[C@H](CCCNC(=N)N)NC(=O)[C@H](Cc1c[nH]c2ccccc12)NC(=O)[C@@H](N)CCCNC(=N)N)C(N)=O
B16: peptide of SEQ ID NO 87 (peptide)
peptide: MRYWYM
HELM: PEPTIDE1{[CCCC(=O)[*:2]].M.R.Y.W.Y.[dM].[am]}$$$$V2.0
SMILES: CCCC(=O)N[C@@H](CCSC)C(=O)N[C@@H](CCCNC(=N)N)C(=O)N[C@@H](Cc1ccc(O)cc1)C(=O)N[C@@H](Cc1c[nH]c2ccccc12)C(=O)N[C@@H](Cc1ccc(O)cc1)C(=O)N[C@H](CCSC)C(N)=O
B17: peptide of SEQ ID NO 85 (peptide)
peptide: MRYWYM
HELM: PEPTIDE1{M.R.Y.W.Y.[dM].[am]}$$$$V2.0; N-terminus assumed
SMILES: CSCC[C@H](N)C(=O)N[C@@H](CCCNC(=N)N)C(=O)N[C@@H](Cc1ccc(O)cc1)C(=O)N[C@@H](Cc1c[nH]c2ccccc12)C(=O)N[C@@H](Cc1ccc(O)cc1)C(=O)N[C@H](CCSC)C(N)=O
B18: peptide of SEQ ID NO 133 (peptide)
peptide: IKFKPM
HELM: PEPTIDE1{I.K.F.K.P.[dM].[am]}$$$$V2.0; N-terminus assumed
SMILES: CC[C@H](C)[C@H](N)C(=O)N[C@@H](CCCCN)C(=O)N[C@@H](Cc1ccccc1)C(=O)N[C@@H](CCCCN)C(=O)N1CCC[C@H]1C(=O)N[C@H](CCSC)C(N)=O

These binders were tested against T1, FPR1 (assay: cell-based or functional assay).

| Binder | EC50 for [Ca2+] |
| --- | --- |
| B1 | > 10 µM |
| B2 | > 10 µM |
| B3 | > 10 µM |
| B4 | > 10 µM |
| B5 | > 10 µM |
| B6 | > 10 µM |
| B7 | > 10 µM |
| B8 | > 10 µM |
| B9 | > 10 µM |
| B10 | > 10 µM |
| B11 | > 10 µM |
| B12 | > 10 µM |
| B13 | > 10 µM |
| B14 | > 10 µM |
| B15 | > 10 µM |
| B16 | > 10 µM |
| B17 | > 10 µM |
| B18 | > 10 µM |

These binders were tested against T2, formyl peptide receptor 2 (FPR2) (assay: cell-based or functional assay).

| Binder | EC50 for [Ca2+] |
| --- | --- |
| B1 | < 0.01 µM |
| B2 | < 0.01 µM |
| B3 | < 0.01 µM |
| B4 | < 0.01 µM |
| B5 | < 0.01 µM |
| B6 | < 0.01 µM |
| B7 | < 0.01 µM |
| B8 | < 0.01 µM |
| B9 | < 0.01 µM |
| B10 | < 0.01 µM |
| B11 | < 0.01 µM |
| B12 | < 0.01 µM |
| B13 | < 0.01 µM |
| B14 | < 0.01 µM |
| B15 | < 0.01 µM |
| B16 | < 0.01 µM |
| B17 | < 0.01 µM |
| B18 | < 0.01 µM |
